Results: US20210198377A1 (XDCEXPLORER SHANGHAI, published 2021)

Tests used:
[1] = target: T1, human TPBG (full length, on cells) (human, UniProt Q13641 32-420); assay: FACS, HEK293 clone 293F-hTPBG 5C12
T1 sequence (looked up): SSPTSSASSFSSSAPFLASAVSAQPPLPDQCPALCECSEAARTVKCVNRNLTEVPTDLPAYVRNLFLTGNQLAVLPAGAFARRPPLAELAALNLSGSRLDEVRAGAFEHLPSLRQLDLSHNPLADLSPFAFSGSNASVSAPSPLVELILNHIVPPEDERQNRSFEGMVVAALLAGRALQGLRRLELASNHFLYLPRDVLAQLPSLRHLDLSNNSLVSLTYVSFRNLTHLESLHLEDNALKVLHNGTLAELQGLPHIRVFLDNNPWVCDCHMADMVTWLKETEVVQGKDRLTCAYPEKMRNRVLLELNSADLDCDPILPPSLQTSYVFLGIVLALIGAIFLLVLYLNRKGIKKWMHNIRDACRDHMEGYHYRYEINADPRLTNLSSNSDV

[2] = target: T1, human TPBG (full length, on cells); assay: FACS, HEK293 clone 293F-hTPBG 4C3
human TPBG-hFc [3] = target: T2, human TPBG-hFc (human, UniProt Q13641 32-355); assay: ELISA, coated human TPBG-hFc 1.0 ug/mL; control IgG 200 nM
T2 construct: also called immunogen A; hFc tagged TPBG protein; not shown: The human IgG Fc fragment of the pCpC vector (Invitrogen V044-50) and any linker to it
T2 sequence: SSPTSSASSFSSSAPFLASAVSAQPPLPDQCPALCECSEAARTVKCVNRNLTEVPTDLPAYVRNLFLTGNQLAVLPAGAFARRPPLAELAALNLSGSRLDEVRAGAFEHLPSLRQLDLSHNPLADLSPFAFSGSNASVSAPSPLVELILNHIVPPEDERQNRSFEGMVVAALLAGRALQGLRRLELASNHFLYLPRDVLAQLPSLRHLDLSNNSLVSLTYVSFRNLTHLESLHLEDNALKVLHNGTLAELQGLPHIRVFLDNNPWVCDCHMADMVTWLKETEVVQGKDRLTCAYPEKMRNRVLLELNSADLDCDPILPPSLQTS

[4] = target: T1, human TPBG (full length, on cells); assay: FACS, HEK293 clone 293F-hTPBG 4A8
[5] = target: T1, human TPBG (full length, on cells); assay: FACS, HEK293 clone 293F-hTPBG 5A9
[6] = target: T1, human TPBG (full length, on cells); assay: FACS, HEK293 clone 293F-hTPBG 5E6
human TPBG-hFc [7] = target: T2, human TPBG-hFc; assay: ELISA, coated human TPBG-hFc 1.0 ug/mL; control IgG 0.0002 nM
[8] = target: T1, human TPBG (full length, on cells); assay: FACS, HEK293 clone 293F-hTPBG 5E5
[9] = target: T1, human TPBG (full length, on cells); assay: FACS, HEK293 clone 293F-hTPBG 4E1
human TPBG-hFc [10] = target: T2, human TPBG-hFc; assay: ELISA, coated human TPBG-hFc 1.0 ug/mL; control IgG 20 nM
[11] = target: T1, human TPBG (full length, on cells); assay: FACS, HEK293 clone 293F-hTPBG 4E1 (NO. 8)
[12] = target: T1, human TPBG (full length, on cells); assay: FACS, HEK293 clone 293F-hTPBG 5D4
[13] = target: T1, human TPBG (full length, on cells); assay: FACS, HEK293 clone 293F-hTPBG 4C5
[14] = target: T1, human TPBG (full length, on cells); assay: FACS, HEK293 clone 293F-hTPBG 5A11
[15] = target: cynomolgus monkey TPBG (full length, on cells) (cynomolgus monkey) (UniProt Q4R8Y9); assay: FACS on CHO-k1-cTPBG 3F13G4 cells
[16] = target: T1, human TPBG (full length, on cells); assay: FACS on CHO-k1-hTPBG 3A2F1 cells
[17] = target: T1, human TPBG (full length, on cells); assay: FACS, HEK293 clone 293F-hTPBG 4G6
human TPBG-hFc [18] = target: T2, human TPBG-hFc; assay: ELISA, coated human TPBG-hFc 1.0 ug/mL; control IgG 0.2 nM
[19] = target: T1, human TPBG (full length, on cells); assay: FACS, HEK293 clone 293F-hTPBG 4A9
[20] = target: T1, human TPBG (full length, on cells); assay: FACS, HEK293 clone 293F-hTPBG 4G1
[21] = target: T1, human TPBG (full length, on cells); assay: FACS, HEK293 clone 293F-hTPBG 4F9
human TPBG-hFc [22] = target: T2, human TPBG-hFc; assay: ELISA, coated human TPBG-hFc 1.0 ug/mL; control IgG 2 nM
[23] = target: T1, human TPBG (full length, on cells); assay: FACS, HEK293 clone 293F-hTPBG 4H12
[24] = target: T1, human TPBG (full length, on cells); assay: FACS, HEK293 clone 293F-hTPBG 5G8
[25] = target: T1, human TPBG (full length, on cells); assay: FACS, HEK293 clone 293F-hTPBG 5H6
[26] = target: T1, human TPBG (full length, on cells); assay: FACS, HEK293 clone 293F-hTPBG 5G11
human TPBG-hFc [27] = target: T2, human TPBG-hFc; assay: ELISA, coated human TPBG-hFc 1.0 ug/mL; control IgG 0.02 nM
human TPBG-hFc [28] = target: T2, human TPBG-hFc; assay: ELISA, coated human TPBG-hFc 1.0 ug/mL; control IgG 0.002 nM
[29] = target: T3, mouse TPBG (full length, on cells) (mouse, UniProt Q9Z0L0 32-426); assay: FACS on CHO-k1-mTPBG 3A3 cells
T3 construct: whole, on cells; On transfected CHO-K1 cells; also called mTPBG; CHO-K1-mTPBG
T3 sequence (looked up): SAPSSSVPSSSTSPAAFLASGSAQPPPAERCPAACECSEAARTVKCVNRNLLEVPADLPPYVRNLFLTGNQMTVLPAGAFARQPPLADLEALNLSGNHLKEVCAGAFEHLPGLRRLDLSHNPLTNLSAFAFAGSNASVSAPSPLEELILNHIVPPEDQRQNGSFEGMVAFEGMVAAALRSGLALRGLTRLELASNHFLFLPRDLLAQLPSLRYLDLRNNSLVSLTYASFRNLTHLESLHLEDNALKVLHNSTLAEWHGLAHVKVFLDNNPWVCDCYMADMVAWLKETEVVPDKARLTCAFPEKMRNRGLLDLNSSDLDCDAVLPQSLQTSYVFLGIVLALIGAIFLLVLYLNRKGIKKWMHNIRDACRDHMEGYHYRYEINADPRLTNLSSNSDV

[30] = target: T1, human TPBG (full length, on cells); assay: FACS, HEK293 clone 293F-hTPBG 4B9

mouse IgG control (antibody) was tested, and the MFI [1] was 3.7 MFI, the MFI [2] was 3.2 MFI and the OD450nm (human TPBG-hFc [3]) was 0.24 OD450nm. It also gave an MFI [4] of 3.1 MFI, an MFI [5] of 5 MFI and an MFI [6] of 2.6 MFI. For the same substance, the OD450nm (human TPBG-hFc [7]) was 0.11 OD450nm, the MFI [8] was 5.6 MFI and the MFI [9] was 5.2 MFI. The OD450nm (human TPBG-hFc [10]) was 0.11 OD450nm, the MFI [11] was 4.8 MFI and the MFI [12] was 3 MFI. It also gave an MFI [13] of 5.6 MFI, an MFI [14] of 4.6 MFI and an MFI [15] of 2.66 MFI. The MFI [16] was 3.24 MFI, the MFI [17] was 3.1 MFI and the OD450nm (human TPBG-hFc [18]) was 0.11 OD450nm. It also gave an MFI [19] of 6.3 MFI, an MFI [20] of 4 MFI and an MFI [21] of 3.9 MFI. The OD450nm (human TPBG-hFc [22]) was 0.1 OD450nm, the MFI [23] was 4 MFI and the MFI [24] was 6 MFI. The MFI [25] was 3 MFI, the MFI [26] was 4.1 MFI and the OD450nm (human TPBG-hFc [27]) was 0.1 OD450nm. The OD450nm (human TPBG-hFc [28]) was 0.1 OD450nm, the MFI [29] was 2.38 MFI and the MFI [30] was 6.3 MFI.
